In patent publication US12269859B2, “Synthetic immune receptors and methods of use thereof” (Angeles Therapeutics, Inc., priority 2016, dated 2025):

System: target antigen-expressing cell line
Assay: Jurkat NFAT-GFP assay, coculture with target cell lines expressing the respective target antigen (summary Table 10A)
Type: cell-based, human
Set-up: key: The signs +/−, +, 2+ etc. after the name of the cell lines indicate the relative degree of positivity on the Jurkat-NFAT-GFP assay as measured by the % GFP positive cells; +: relative degree of positivity on the Jurkat-NFAT-GFP assay as measured by the % GFP positive cells; 2+: relative degree of positivity on the Jurkat-NFAT-GFP assay as measured by the % GFP positive cells
Conditions: relative % GFP positive cells; for NFAT-GFP ASSAY Positive Cell lines: RAJI: SIR-expressing Jurkat-NFAT-GFP cells cocultured with RAJI; for NFAT-GFP ASSAY Positive Cell lines: L363: SIR-expressing Jurkat-NFAT-GFP cells cocultured with L363; for NFAT-GFP ASSAY Positive Cell lines: U266: SIR-expressing Jurkat-NFAT-GFP cells cocultured with U266; for NFAT-GFP ASSAY Positive Cell lines: Bv173: SIR-expressing Jurkat-NFAT-GFP cells cocultured with Bv173
In short: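 Read-out: % GFP+ cells by FACS. SIR-transduced, puromycin-selected Jurkat NFAT-GFP (IL-2 promoter reporter) cocultured ~4–18 h with target line, E:T ~1:2; parental cells as control; graded +/−, +, 2+ relative to parental.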

Molecule	NFAT-GFP ASSAY Positive Cell lines: RAJI	NFAT-GFP ASSAY Positive Cell lines: L363	NFAT-GFP ASSAY Positive Cell lines: U266	NFAT-GFP ASSAY Positive Cell lines: Bv173	other results
110116-G04 (protein, Synthetic Immune Receptor (SIR)) MALPVTALLLPLALLLHAARPLEQKLISEEDLGSGDRPDPAVYQLRDSKSSDKSVCLFTDFDSQTNVSQSKDSDVYITDKCVLDMRSMDFKSNSAVAWSNKSDFACANAFNNSIIPEDTFFPSPESSCDVKLVEKSFETDTNLNFQNLSVIGFRILLLKVAGFNLLMTLRLWSSSSRAKRSGSGVKQTLNFDLLKLAGDVESNPGPTSTMALPVTALLLPLALLLHAARPDIVMTQTPLTLSVTIGQPASISCKSSQSLLDSDGKTYLNWLLQRPGQSPERLIYLVSKLDSGVPDRFTGSGSGTDFTLKISRVEAEDLGVYCCWQGTHFPYTFGGGTKVEIKGGGGGSGGGGSGGGGSQVQLQQPGAELVRPGASVKLSCKASGYTFTSYWMNWVKQRPGQGLEWIGMIDPSDSETHYNHIFKDKATLTVDKSSSTAYLQLSSLTSEDSAVYYCARNLYLWGQGTSVTVSSTRGKPIPNPLLGLDSTGSGEDLKNVFPPEVAVFEPSEAEISHTQKATLVCLATGFYPDHVELSWWVNGKEVHSGVCTDPQPLKEQPALNDSRYCLSSRLRVSATFWQNPRNHFRCQVQFYGLSENDEWTQDRAKPVTQIVSAEAWGRADCGFTSESYQQGVLSATILYEILLGKATLYAVLVSALVLMAMVKRKDSRGRAKRSGSGATNFSLLKQAGDVEENPGPSRGHMTEYKPTVRLATRDDVPRAVRTLAAAFADYPATRHTVDPDRHIERVTELQELFLTRVGLDIGKVWVADDGAAVAVWTTPESVEAGAVFAEIGPRMAELSGSRLAAQQQMEGLLAPHRPKEPAWFLATVGVSPDHQGKGLGSAVVLPGVEAAERAGVPAFLETSAPRNLPFYERLGFTVTADVEVPEGPRTWCMTRKPGA	RAJI (+/−)	–	–	–	–
031517-S02 (protein) MALPVTALLLPLALLLHAARPLEGKPIPNPLLGLDSTGSGEDLKNVFPPEVAVFEPSKAEIAHTQKATLVCLATGFYPDHVELSWWVNGKEVHSGVCTDPQPLKEQPALNDSRYCLSSRLRVSATFWQNPRNHFRCQVQFYGLSENDEWTQDRAKPVTQIVSAEAWGRADCGITSASYHQGVLSATILYEILLGKATLYAVLVSALVLMAMVKRKDSRGRAKRSGSGATNFSLLKQAGDVEENPGPTSMALPVTALLLPLALLLHAARPDIVLTQSPASLAVSLGERATINCRASESVSVIGAHLIHWYQQKPGQPPKLLIYLASNLETGVPARFSGSGSGTDFTLTISSLQAEDAAIYYCLQSRIFPRTFGQGTKLEIKGGGGSGGGGSGGGGSQVQLVQSGSELKKPGESVKISCKASGYTFTDYSINWVKQAPGQGLKWMGWINTETREPAYAYDFRGRFVFSLDTSASTAYLQISSLKAEDTAVYFCALDYSYAMDYWGQGTLVTVSSTREQKLISEEDGSGIQNPDPAVYQLRDSKSSDKSVCLFTDFDSQTNVSQSKDSDVYITDKCVLDMRSMDFKSNSAVAWSNKSDFACANAFNNSIIPEDTFFPSSDVPCDVKLVEKSFETDTNLNFQNLSVIGFRILLLKVAGFNLLMTLRLWSSRAKRSGSGVKQTLNFDLLKLAGDVESNPGPSRGHMTEYKPTVRLATRDDVPRAVRTLAAAFADYPATRHTVDPDRHIERVTELQELFLTRVGLDIGKVWVADDGAAVAVWTTPESVEAGAVFAEIGPRMAELSGSRLAAQQQMEGLLAPHRPKEPAWFLATVGVSPDHQGKGLGSAVVLPGVEAAERAGVPAFLETSAPRNLPFYERLGFTVTADVEVPEGPRTWCMTRKPGA	–	L363 (+/−), U266	(+/−)	–	–
090116-G02 (protein, Synthetic Immune Receptor (SIR)) MALPVTALLLPLALLLHAARPLEGKPIPNPLLGLDSTGSGEDLKNVFPPEVAVFEPSKAEIAHTQKATLVCLATGFYPDHVELSWWVNGKEVHSGVCTDPQPLKEQPALNDSRYCLSSRLRVSATFWQNPRNHFRCQVQFYGLSENDEWTQDRAKPVTQIVSAEAWGRADCGITSASYHQGVLSATILYEILLGKATLYAVLVSALVLMAMVKRKDSRGRAKRSGSGATNFSLLKQAGDVEENPGPTSTMALPVTALLLPLALLLHAARPDIVMTQTPLTLSVTIGQPASISCKSSQSLLDSDGKTYLNWLLQRPGQSPERLIYLVSKLDSGVPDRFTGSGSGTDFTLKISRVEAEDLGVYCCWQGTHFPYTFGGGTKVEIKGGGGGSGGGGSGGGGSQVQLQQPGAELVRPGASVKLSCKASGYTFTSYWMNWVKQRPGQGLEWIGMIDPSDSETHYNHIFKDKATLTVDKSSSTAYLQLSSLTSEDSAVYYCARNLYLWGQGTSVTVSSTREQKLISEEDGSGIQNPDPAVYQLRDSKSSDKSVCLFTDFDSQTNVSQSKDSDVYITDKCVLDMRSMDFKSNSAVAWSNKSDFACANAFNNSIIPEDTFFPSSDVPCDVKLVEKSFETDTNLNFQNLSVIGFRILLLKVAGFNLLMTLRLWSSRAKRSGSGVKQTLNFDLLKLAGDVESNPGPSRGHMTEYKPTVRLATRDDVPRAVRTLAAAFADYPATRHTVDPDRHIERVTELQELFLTRVGLDIGKVWVADDGAAVAVWTTPESVEAGAVFAEIGPRMAELSGSRLAAQQQMEGLLAPHRPKEPAWFLATVGVSPDHQGKGLGSAVVLPGVEAAERAGVPAFLETSAPRNLPFYERLGFTVTADVEVPEGPRTWCMTRKPGA	RAJI (+)	–	–	–	–
031517-T06 (protein) MALPVTALLLPLALLLHAARPLEGKPIPNPLLGLDSTGSGEDLKNVFPPEVAVFEPSKAEIAHTQKATLVCLATGFYPDHVELSWWVNGKEVHSGVCTDPQPLKEQPALNDSRYCLSSRLRVSATFWQNPRNHFRCQVQFYGLSENDEWTQDRAKPVTQIVSAEAWGRADCGITSASYHQGVLSATILYEILLGKATLYAVLVSALVLMAMVKRKDSRGRAKRSGSGATNFSLLKQAGDVEENPGPTSMALPVTALLLPLALLLHAARPDIVLTQSPATLSLSPGDRATLSCRASESVTILGSHLIYWYQQKPGQAPRLLIQLASNVQTGIPARFSGSGSRTDFTLTISSLEPEDFAVYYCLQSRTIPRTFGQGTKLEIKRGGGGSGGGGSGGGGSQVQLVQSGSELKKPGESVKISCKASGYTFTHYSMNWVRQAPGQGLEWMGRINTETGEPLYADDFKGRFVFSLDTSASTAYLQISSLKAEDTAVYYCSNDYLYSLDYWGQGTLVTVSSTREQKLISEEDGSGIQNPDPAVYQLRDSKSSDKSVCLFTDFDSQTNVSQSKDSDVYITDKCVLDMRSMDFKSNSAVAWSNKSDFACANAFNNSIIPEDTFFPSSDVPCDVKLVEKSFETDTNLNFQNLSVIGFRILLLKVAGFNLLMTLRLWSSRAKRSGSGVKQTLNFDLLKLAGDVESNPGPSRGHMTEYKPTVRLATRDDVPRAVRTLAAAFADYPATRHTVDPDRHIERVTELQELFLTRVGLDIGKVWVADDGAAVAVWTTPESVEAGAVFAEIGPRMAELSGSRLAAQQQMEGLLAPHRPKEPAWFLATVGVSPDHQGKGLGSAVVLPGVEAAERAGVPAFLETSAPRNLPFYERLGFTVTADVEVPEGPRTWCMTRKPGA	–	L363 (+/−), U266	(+/−)	–	–
111215-J02 (protein, Synthetic Immune Receptor (SIR)) MDWIWRILFLVGAATGAHSFEVQLVESGGGSVQAGGSLRLSCTTSGRALNMYVMGWFRQAPGNEREFVAATSSSGGSTSYPDSVKGRFTISRDNAKNTVYLQMNSLKPEDTAAYRCAASPYVSTPTMNILEEYRYWGLGTQVTVSSLEGKPIPNPLLGLDSTGSGEDLKNVFPPEVAVFEPSEAEISHTQKATLVCLATGFYPDHVELSWWVNGKEVHSGVCTDPQPLKEQPALNDSRYCLSSRLRVSATFWQNPRNHFRCQVQFYGLSENDEWTQDRAKPVTQIVSAEAWGRADCGFTSESYQQGVLSATILYEILLGKATLYAVLVSALVLMAMVKRKDSRGRAKRSGSGATNFSLLKQAGDVEENPGPTSMDWIWRILFLVGAATGAHSFEVQLVESGGGLVQAGGSLRLSCAASGSIFSGNVMGWYRRQAPGKEREWVAAIASGGSIYYRDSVKGRFTISRDNAKNTVYLQMNSLKPEDTAVYYCNSHPPTLPYWGLGTQVTVSSTREQKLISEEDGSGIQNPDPAVYQLRDSKSSDKSVCLFTDFDSQTNVSQSKDSDVYITDKCVLDMRSMDFKSNSAVAWSNKSDFACANAFNNSIIPEDTFFPSPESSCDVKLVEKSFETDTNLNFQNLSVIGFRILLLKVAGFNLLMTLRLWSSRAKRSGSGVKQTLNFDLLKLAGDVESNPGPSRGHMTEYKPTVRLATRDDVPRAVRTLAAAFADYPATRHTVDPDRHIERVTELQELFLTRVGLDIGKVWVADDGAAVAVWTTPESVEAGAVFAEIGPRMAELSGSRLAAQQQMEGLLAPHRPKEPAWFLATVGVSPDHQGKGLGSAVVLPGVEAAERAGVPAFLETSAPRNLPFYERLGFTVTADVEVPEGPRTWCMTRKPGA	–	–	–	(+)	NFAT-GFP ASSAY Positive Cell lines: MOLM13 (SIR-expressing Jurkat-NFAT-GFP cells cocultured with MOLM13): MOLM13 (+), Bv173
111215-K06 (protein, Synthetic Immune Receptor (SIR)) MDWIWRILFLVGAATGAHSFEVQLVESGGGSVQAGGSLRLSCTTSGRALNMYVMGWFRQAPGNEREFVAATSSSGGSTSYPDSVKGRFTISRDNAKNTVYLQMNSLKPEDTAAYRCAASPYVSTPTMNILEEYRYWGLGTQVTVSSLEGKPIPNPLLGLDSTGSGEDLKNVFPPEVAVFEPSKAEIAHTQKATLVCLATGFYPDHVELSWWVNGKEVHSGVCTDPQPLKEQPALNDSRYCLSSRLRVSATFWQNPRNHFRCQVQFYGLSENDEWTQDRAKPVTQIVSAEAWGRADCGITSASYHQGVLSATILYEILLGKATLYAVLVSALVLMAMVKRKDSRGRAKRSGSGATNFSLLKQAGDVEENPGPTSMDWIWRILFLVGAATGAHSFEVQLVESGGGLVQAGGSLRLSCAASGSIFSGNVMGWYRRQAPGKEREWVAAIASGGSIYYRDSVKGRFTISRDNAKNTVYLQMNSLKPEDTAVYYCNSHPPTLPYWGLGTQVTVSSTREQKLISEEDGSGIQNPDPAVYQLRDSKSSDKSVCLFTDFDSQTNVSQSKDSDVYITDKCVLDMRSMDFKSNSAVAWSNKSDFACANAFNNSIIPEDTFFPSSDVPCDVKLVEKSFETDTNLNFQNLSVIGFRILLLKVAGFNLLMTLRLWSSRAKRSGSGVKQTLNFDLLKLAGDVESNPGPSRGHMTEYKPTVRLATRDDVPRAVRTLAAAFADYPATRHTVDPDRHIERVTELQELFLTRVGLDIGKVWVADDGAAVAVWTTPESVEAGAVFAEIGPRMAELSGSRLAAQQQMEGLLAPHRPKEPAWFLATVGVSPDHQGKGLGSAVVLPGVEAAERAGVPAFLETSAPRNLPFYERLGFTVTADVEVPEGPRTWCMTRKPGA	–	–	–	Bv173 (+), THP1	NFAT-GFP ASSAY Positive Cell lines: THP1 (SIR-expressing Jurkat-NFAT-GFP cells cocultured with THP1): (+),
